In PMC9601244:

Target: NGAL (neutrophil gelatinase-associated lipocalin) (UniProt P80188 24-198, C107S)
Assay: dipstick lateral-flow sandwich assay

NGAL (neutrophil gelatinase-associated lipocalin), sequence (P80188 24-198 C107S): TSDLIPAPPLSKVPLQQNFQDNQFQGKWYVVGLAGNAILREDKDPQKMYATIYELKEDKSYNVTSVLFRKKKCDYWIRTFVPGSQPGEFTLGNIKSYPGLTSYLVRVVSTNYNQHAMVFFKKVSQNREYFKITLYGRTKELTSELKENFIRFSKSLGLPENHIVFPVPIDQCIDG

ATGGCGGAGCTGGATAGTATAGTCGG (ssDNA) [NGAL truncated aptamer, biotinylated (26-base)]
binding result: binds
